Some targets named below: PTPN3, P26045; MAGI2_5, Q86UL8; MAST1, Q9Y2H9; DLG2_3, Q15700; HTRA1, Q92743; PICK1, Q9NRD5; NHERF4_2, Q86UT5; NOS1, P29475; DLG1_3, Q12959; TJP1_2, Q07157; AHNAK1, Q09666; IL16_3, Q14005.
What all share (experiment): holdup assay
Holding throughout (parameters): key: below the threshold = too weak to quantify, mostly under pKd 3.1 to 4
Common to all, as to settings: plain residues with an end cap or a label only (N-terminal biotin on a linker: ado-ado)

For a further assay, the target named is T1, NHERF3_4, Q5T2W1.
T1 sequence (Q5T2W1 373-468, limits assumed, looked up): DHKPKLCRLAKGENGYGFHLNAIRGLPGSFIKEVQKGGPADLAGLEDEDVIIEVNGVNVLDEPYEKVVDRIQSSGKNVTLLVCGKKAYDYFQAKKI

The next assay concerns the target T2, MPDZ_10, O75970.
T2 sequence (O75970 1624-1722, limits assumed, looked up): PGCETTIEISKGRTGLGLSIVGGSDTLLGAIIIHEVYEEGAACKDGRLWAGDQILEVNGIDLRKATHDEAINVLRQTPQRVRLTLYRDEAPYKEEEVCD

Another assay concerns the target T3, TX1BP3, O14907.
T3 sequence (O14907 10-122, limits assumed, looked up): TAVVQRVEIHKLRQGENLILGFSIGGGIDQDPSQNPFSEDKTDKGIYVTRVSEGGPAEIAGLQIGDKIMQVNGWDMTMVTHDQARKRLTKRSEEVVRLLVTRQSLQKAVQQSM

The next assay deals with T4, ARHGEF11, O15085.
T4 sequence (O15085 42-136, limits assumed, looked up): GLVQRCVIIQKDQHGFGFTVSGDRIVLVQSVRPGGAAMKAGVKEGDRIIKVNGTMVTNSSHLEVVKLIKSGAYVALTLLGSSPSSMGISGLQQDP

The next assay addresses T5, APBA3_1, O96018.
T5 sequence (O96018 389-490, limits assumed, looked up): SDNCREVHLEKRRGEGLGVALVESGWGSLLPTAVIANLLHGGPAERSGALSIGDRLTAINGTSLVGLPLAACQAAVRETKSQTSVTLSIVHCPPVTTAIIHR

In another assay the target is T6, DLG3_1, Q92796.
T6 sequence (Q92796 125-227, limits assumed, looked up): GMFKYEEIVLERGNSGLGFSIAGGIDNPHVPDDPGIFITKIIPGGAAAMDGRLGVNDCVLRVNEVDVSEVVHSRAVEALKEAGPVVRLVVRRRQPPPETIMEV

For another assay, the target named is T7, MPDZ_12, O75970.
T7 sequence (O75970 1857-1958, limits assumed, looked up): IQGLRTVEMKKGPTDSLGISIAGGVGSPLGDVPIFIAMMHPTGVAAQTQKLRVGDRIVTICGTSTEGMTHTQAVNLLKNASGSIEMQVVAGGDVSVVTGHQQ

A further assay concerns the target T8, LRRC7, Q96NW7.
T8 sequence (Q96NW7 1440-1537, limits assumed, looked up): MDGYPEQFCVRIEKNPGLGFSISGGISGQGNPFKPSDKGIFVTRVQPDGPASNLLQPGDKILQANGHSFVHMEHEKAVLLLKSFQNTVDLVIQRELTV

Another assay deals with T9, PDZRN3_1, Q9UPQ7.
T9 sequence (Q9UPQ7 244-349, limits assumed, looked up): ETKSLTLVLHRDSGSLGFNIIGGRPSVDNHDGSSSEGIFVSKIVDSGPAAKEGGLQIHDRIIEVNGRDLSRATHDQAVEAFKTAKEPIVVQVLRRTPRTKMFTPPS

For the next assay, the target named is T10, MPDZ_5, O75970.
T10 sequence (O75970 695-796, limits assumed, looked up): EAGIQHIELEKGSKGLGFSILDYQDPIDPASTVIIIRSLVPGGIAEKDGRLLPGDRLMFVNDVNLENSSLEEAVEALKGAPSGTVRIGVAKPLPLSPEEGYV

Another assay concerns the target T11, LIN7A, O14910.
T11 sequence (O14910 103-200, limits assumed, looked up): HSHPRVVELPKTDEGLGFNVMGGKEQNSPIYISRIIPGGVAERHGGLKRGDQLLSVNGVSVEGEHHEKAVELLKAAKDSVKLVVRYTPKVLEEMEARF

The target in a further assay is T12, DFNB31_3, Q9P202.
T12 sequence (Q9P202 811-907, limits assumed, looked up): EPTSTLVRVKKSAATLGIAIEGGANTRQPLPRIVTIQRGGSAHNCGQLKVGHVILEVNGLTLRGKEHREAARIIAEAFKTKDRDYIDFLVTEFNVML

The pKd is −log10 of the Kd, conventionally taken in molar units.

IL16_3, Q14005, sequence (Q14005 1107-1207): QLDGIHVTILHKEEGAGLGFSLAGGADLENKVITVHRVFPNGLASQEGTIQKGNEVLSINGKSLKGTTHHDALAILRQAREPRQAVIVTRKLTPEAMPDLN
NOS1, P29475, sequence (P29475 9-101): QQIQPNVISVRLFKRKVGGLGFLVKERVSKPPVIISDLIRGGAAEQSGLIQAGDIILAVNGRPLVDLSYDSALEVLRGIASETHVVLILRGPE
HTRA1, Q92743, sequence (Q92743 360-477): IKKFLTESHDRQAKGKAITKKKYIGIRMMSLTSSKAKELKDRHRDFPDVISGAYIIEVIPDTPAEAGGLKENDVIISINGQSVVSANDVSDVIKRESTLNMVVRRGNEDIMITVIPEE
DLG1_3, Q12959, sequence (Q12959 457-571): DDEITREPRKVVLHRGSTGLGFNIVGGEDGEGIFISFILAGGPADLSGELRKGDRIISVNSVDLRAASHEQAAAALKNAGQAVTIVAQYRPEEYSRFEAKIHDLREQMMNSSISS
PTPN3, P26045, sequence (P26045 505-587): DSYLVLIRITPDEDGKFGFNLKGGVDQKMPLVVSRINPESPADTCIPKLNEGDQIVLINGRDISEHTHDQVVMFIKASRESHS
MAGI2_5, Q86UL8, sequence (Q86UL8 915-1017): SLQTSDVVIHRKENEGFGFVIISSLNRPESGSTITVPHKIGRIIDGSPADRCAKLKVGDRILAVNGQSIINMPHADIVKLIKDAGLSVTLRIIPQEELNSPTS
MAST1, Q9Y2H9, sequence (Q9Y2H9 962-1065): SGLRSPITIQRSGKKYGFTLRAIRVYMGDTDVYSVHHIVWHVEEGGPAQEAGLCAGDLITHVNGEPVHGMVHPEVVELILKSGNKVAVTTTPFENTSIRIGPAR
NHERF4_2, Q86UT5, sequence (Q86UT5 220-308): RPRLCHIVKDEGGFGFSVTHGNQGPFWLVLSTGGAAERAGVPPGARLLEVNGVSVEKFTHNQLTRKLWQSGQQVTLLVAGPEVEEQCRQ
AHNAK1, Q09666, sequence (Q09666 4-100): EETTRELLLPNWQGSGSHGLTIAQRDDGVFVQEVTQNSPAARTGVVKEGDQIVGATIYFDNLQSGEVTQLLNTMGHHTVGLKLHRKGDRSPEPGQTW
TJP1_2, Q07157, sequence (Q07157 181-274): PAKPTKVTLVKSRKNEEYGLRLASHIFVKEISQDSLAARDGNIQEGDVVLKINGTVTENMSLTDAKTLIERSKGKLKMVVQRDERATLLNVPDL
PICK1, Q9NRD5, sequence (Q9NRD5 17-115): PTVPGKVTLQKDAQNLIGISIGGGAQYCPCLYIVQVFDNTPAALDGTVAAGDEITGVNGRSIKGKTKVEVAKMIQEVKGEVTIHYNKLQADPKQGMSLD

B1: PRKN, O60260 (peptide)
chain: VCMGDHWFDV
As to B1, the pKd result with NHERF3_4, Q5T2W1 was “below the threshold”; in the assay with MPDZ_10, O75970, “below the threshold”; with PTPN3, P26045 it was 3.49; with TX1BP3, O14907 it was 3.77; with MAGI2_5, Q86UL8, “below the threshold”; in the assay with MAST1, Q9Y2H9 it was “below the threshold”. The pKd with ARHGEF11, O15085 is 4.18; in the assay with DLG2_3, Q15700 it was “below the threshold”; in the assay with HTRA1, Q92743, 4.96; with PICK1, Q9NRD5, “below the threshold”; with APBA3_1, O96018, “below the threshold”; in the assay with NHERF4_2, Q86UT5, “below the threshold”. Moreover, the pKd was 3.51 with NOS1, P29475; “below the threshold” with DLG3_1, Q92796; “below the threshold” in the assay with DLG1_3, Q12959; “below the threshold” in the assay with MPDZ_12, O75970; 3.75 with LRRC7, Q96NW7; “below the threshold” in the assay with PDZRN3_1, Q9UPQ7. In addition, the pKd result is “below the threshold” in the assay with MPDZ_5, O75970; “below the threshold” with TJP1_2, Q07157; “below the threshold” with AHNAK1, Q09666; “below the threshold” with LIN7A, O14910; 3.54 with DFNB31_3, Q9P202; “below the threshold” with IL16_3, Q14005.

B2: TYRP1, P17643 (peptide)
chain: KLQNPNQSVV
Consider B2, for which the pKd result with NHERF3_4, Q5T2W1 was “below the threshold”; in the assay with MPDZ_10, O75970, 3.54; with PTPN3, P26045 it was “below the threshold”; with TX1BP3, O14907, “below the threshold”; in the assay with MAGI2_5, Q86UL8, 3.78; in the assay with MAST1, Q9Y2H9 it was 4.37. Besides, the pKd with ARHGEF11, O15085 is 3.9; with DLG2_3, Q15700 it was “below the threshold”; in the assay with HTRA1, Q92743, 4.11; with PICK1, Q9NRD5, 4.19; with APBA3_1, O96018, “below the threshold”; in the assay with NHERF4_2, Q86UT5 it was “below the threshold”. The pKd entry with NOS1, P29475 was “below the threshold”; with DLG3_1, Q92796, “below the threshold”; in the assay with DLG1_3, Q12959 it was 3.56; with MPDZ_12, O75970, “below the threshold”; with LRRC7, Q96NW7, “below the threshold”; with PDZRN3_1, Q9UPQ7, “below the threshold”. The pKd entry with MPDZ_5, O75970 was “below the threshold”; in the assay with TJP1_2, Q07157, “below the threshold”; with AHNAK1, Q09666 it was “below the threshold”; with LIN7A, O14910 it was “below the threshold”; in the assay with DFNB31_3, Q9P202 it was “below the threshold”; with IL16_3, Q14005 it was “below the threshold”.

B3: CCL24, O00175 (peptide)
chain: QRYPGNQTTC
Turning to B3, the pKd result in the assay with NHERF3_4, Q5T2W1 is “below the threshold”; with MPDZ_10, O75970 it was “below the threshold”; with PTPN3, P26045, 3.66; with TX1BP3, O14907, “below the threshold”; in the assay with MAGI2_5, Q86UL8, “below the threshold”; with MAST1, Q9Y2H9, 4.14. In addition, the pKd result with ARHGEF11, O15085 is “below the threshold”; with DLG2_3, Q15700, 3.87; with HTRA1, Q92743, 3.66; with PICK1, Q9NRD5 it was “below the threshold”; with APBA3_1, O96018, “below the threshold”; with NHERF4_2, Q86UT5, “below the threshold”. The pKd entry with NOS1, P29475 is “below the threshold”; with DLG3_1, Q92796, “below the threshold”; in the assay with DLG1_3, Q12959, 3.76; with MPDZ_12, O75970, “below the threshold”; with LRRC7, Q96NW7 it was “below the threshold”; with PDZRN3_1, Q9UPQ7, “below the threshold”. Besides, the pKd result was “below the threshold” in the assay with MPDZ_5, O75970; “below the threshold” with TJP1_2, Q07157; “below the threshold” in the assay with AHNAK1, Q09666; “below the threshold” in the assay with LIN7A, O14910; “below the threshold” with DFNB31_3, Q9P202; “below the threshold” with IL16_3, Q14005.

(Values after PMC9482650, “Quantitative fragmentomics allow affinity mapping of interactomes” (Nature Communications, 2022).)
